The values below come from patent publication US20180155406A1 (Sanofi, published 2018).

Numbered stars: 1 amine (or outer) side, 2 acyl side, 3 side chain; on linkers, the order of the positions; unused ones are H or OH. Square brackets hold non-standard residues; d marks the D form. Side chains are listed from the residue outwards. Ends that are not written are not given here. * marks the point of attachment. γGlu = O=C(O)[C@H](CCC(=O)[*:2])N[*:1]; Stearoyl = CCCCCCCCCCCCCCCCCC(=O)*; Palmitoyl = CCCCCCCCCCCCCCCC(=O)*; gAAA = not defined here; AEEA = NCCOCCOCC(=O)O; Aib = CC(C)(N)C(=O)O

Holding throughout (assay): cell-based or functional assay
In experiment [1] the target is human glucagon receptor (human) (UniProt P47871).
For experiment [2], the target named is human GLP-1 receptor (human) (UniProt P43220).
Experiment [3] has as its target T1, human glucagon receptor (human, UniProt P47871 26-477).
The target of a further experiment is T2, human GIP receptor (human, UniProt P48546 22-466).
T2 sequence (looked up): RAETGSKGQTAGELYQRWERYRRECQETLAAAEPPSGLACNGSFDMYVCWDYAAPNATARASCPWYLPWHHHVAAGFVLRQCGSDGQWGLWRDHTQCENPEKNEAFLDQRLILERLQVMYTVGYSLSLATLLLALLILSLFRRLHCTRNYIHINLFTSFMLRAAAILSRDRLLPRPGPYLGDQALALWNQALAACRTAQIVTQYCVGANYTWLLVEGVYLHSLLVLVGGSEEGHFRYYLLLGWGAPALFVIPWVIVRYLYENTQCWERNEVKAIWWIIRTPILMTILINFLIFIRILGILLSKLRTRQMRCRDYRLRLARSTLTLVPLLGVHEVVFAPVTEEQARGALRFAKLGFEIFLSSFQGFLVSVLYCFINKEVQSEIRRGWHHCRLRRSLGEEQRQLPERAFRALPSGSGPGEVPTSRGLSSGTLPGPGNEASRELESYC

For a further experiment, the target named is human GLP-1 receptor (human, UniProt P43220 24-463).
Experiment [4] addresses T1, human glucagon receptor. The source holds these as a separate data set.

T1 sequence (P47871 26-477): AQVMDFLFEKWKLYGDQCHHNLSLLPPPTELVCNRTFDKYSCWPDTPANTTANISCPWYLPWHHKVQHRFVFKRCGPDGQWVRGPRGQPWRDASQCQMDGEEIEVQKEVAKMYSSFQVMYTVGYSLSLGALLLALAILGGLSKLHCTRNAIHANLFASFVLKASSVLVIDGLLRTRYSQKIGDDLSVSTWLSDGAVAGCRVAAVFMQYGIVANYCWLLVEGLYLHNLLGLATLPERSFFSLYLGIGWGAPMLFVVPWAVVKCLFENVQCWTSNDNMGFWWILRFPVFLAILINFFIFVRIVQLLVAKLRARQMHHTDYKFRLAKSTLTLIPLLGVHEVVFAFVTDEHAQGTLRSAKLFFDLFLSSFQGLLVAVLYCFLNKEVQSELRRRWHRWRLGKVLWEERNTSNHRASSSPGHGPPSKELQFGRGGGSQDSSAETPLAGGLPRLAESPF
Sequence of human glucagon receptor (human) (P47871 26-477): as above
Sequence of human GLP-1 receptor (human) (P43220 24-463): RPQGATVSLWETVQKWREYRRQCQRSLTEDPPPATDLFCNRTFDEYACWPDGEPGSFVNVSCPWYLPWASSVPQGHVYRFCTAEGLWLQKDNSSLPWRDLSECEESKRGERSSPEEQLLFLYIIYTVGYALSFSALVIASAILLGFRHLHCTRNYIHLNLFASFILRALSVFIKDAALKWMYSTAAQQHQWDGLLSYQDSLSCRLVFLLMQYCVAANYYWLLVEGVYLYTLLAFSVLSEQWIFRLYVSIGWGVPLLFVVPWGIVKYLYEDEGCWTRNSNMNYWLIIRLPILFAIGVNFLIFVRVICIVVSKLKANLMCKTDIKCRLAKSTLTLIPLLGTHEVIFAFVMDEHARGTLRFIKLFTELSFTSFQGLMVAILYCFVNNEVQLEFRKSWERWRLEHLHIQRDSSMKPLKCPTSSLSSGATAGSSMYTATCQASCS

Molecule exendin-4 (peptide) had an EC50 hGlucagon R [pM] (cAMP formation) in experiment [1] above 1e+07 pM. The EC50 hGLP-1 R [pM] (cAMP formation) in experiment [2] stood at 0.4 pM.

B1: SEQ ID NO: 21 (peptide)
peptide: H[Aib]HGTFTSDLSKLK([γGlu-Stearoyl])EEQRQKEFIEWLKAGGPPS[Aib]KPPPK-NH2
modifications: N-terminus assumed
SMILES: CCCCCCCCCCCCCCCCCC(=O)N[C@@H](CCC(=O)NCCCC[C@H](NC(=O)[C@H](CC(C)C)NC(=O)[C@H](CCCCN)NC(=O)[C@H](CO)NC(=O)[C@H](CC(C)C)NC(=O)[C@H](CC(=O)O)NC(=O)[C@H](CO)NC(=O)[C@@H](NC(=O)[C@H](Cc1ccccc1)NC(=O)[C@@H](NC(=O)CNC(=O)[C@H](Cc1c[nH]cn1)NC(=O)C(C)(C)NC(=O)[C@@H](N)Cc1c[nH]cn1)[C@@H](C)O)[C@@H](C)O)C(=O)N[C@@H](CCC(=O)O)C(=O)N[C@@H](CCC(=O)O)C(=O)N[C@@H](CCC(N)=O)C(=O)N[C@@H](CCCNC(=N)N)C(=O)N[C@@H](CCC(N)=O)C(=O)N[C@@H](CCCCN)C(=O)N[C@@H](CCC(=O)O)C(=O)N[C@@H](Cc1ccccc1)C(=O)N[C@H](C(=O)N[C@@H](CCC(=O)O)C(=O)N[C@@H](Cc1c[nH]c2ccccc12)C(=O)N[C@@H](CC(C)C)C(=O)N[C@@H](CCCCN)C(=O)N[C@@H](C)C(=O)NCC(=O)NCC(=O)N1CCC[C@H]1C(=O)N1CCC[C@H]1C(=O)N[C@@H](CO)C(=O)NC(C)(C)C(=O)N[C@@H](CCCCN)C(=O)N1CCC[C@H]1C(=O)N1CCC[C@H]1C(=O)N1CCC[C@H]1C(=O)N[C@@H](CCCCN)C(N)=O)[C@@H](C)CC)C(=O)O
For the molecule B1, the “EC50 hGlucagon R (cAMP formation)” value with human glucagon receptor [3] turned out to be 1.9 pM. The “EC50 hGIP R (cAMP formation)” value in the experiment with human GIP receptor is 2.6 pM. Also, the “EC50 hGLP-1R (cAMP formation)” value in the experiment with human GLP-1 receptor amounted to 3.4 pM.

B2: SEQ ID NO: 6 (peptide)
peptide: H[Aib]HGTFTSDLSKLK([γGlu-γGlu-Palmitoyl])EEQRQKEFIEWLKAGGHPS[Aib]KPPPK-NH2
modifications: N-terminus assumed
SMILES: CCCCCCCCCCCCCCCC(=O)N[C@@H](CCC(=O)N[C@@H](CCC(=O)NCCCC[C@H](NC(=O)[C@H](CC(C)C)NC(=O)[C@H](CCCCN)NC(=O)[C@H](CO)NC(=O)[C@H](CC(C)C)NC(=O)[C@H](CC(=O)O)NC(=O)[C@H](CO)NC(=O)[C@@H](NC(=O)[C@H](Cc1ccccc1)NC(=O)[C@@H](NC(=O)CNC(=O)[C@H](Cc1c[nH]cn1)NC(=O)C(C)(C)NC(=O)[C@@H](N)Cc1c[nH]cn1)[C@@H](C)O)[C@@H](C)O)C(=O)N[C@@H](CCC(=O)O)C(=O)N[C@@H](CCC(=O)O)C(=O)N[C@@H](CCC(N)=O)C(=O)N[C@@H](CCCNC(=N)N)C(=O)N[C@@H](CCC(N)=O)C(=O)N[C@@H](CCCCN)C(=O)N[C@@H](CCC(=O)O)C(=O)N[C@@H](Cc1ccccc1)C(=O)N[C@H](C(=O)N[C@@H](CCC(=O)O)C(=O)N[C@@H](Cc1c[nH]c2ccccc12)C(=O)N[C@@H](CC(C)C)C(=O)N[C@@H](CCCCN)C(=O)N[C@@H](C)C(=O)NCC(=O)NCC(=O)N[C@@H](Cc1c[nH]cn1)C(=O)N1CCC[C@H]1C(=O)N[C@@H](CO)C(=O)NC(C)(C)C(=O)N[C@@H](CCCCN)C(=O)N1CCC[C@H]1C(=O)N1CCC[C@H]1C(=O)N1CCC[C@H]1C(=O)N[C@@H](CCCCN)C(N)=O)[C@@H](C)CC)C(=O)O)C(=O)O
As to B2, in the experiment with human glucagon receptor [3], the “EC50 hGlucagon R (cAMP formation)” value came to 2.3 pM. Moreover, the “EC50 hGIP R (cAMP formation)” value with human GIP receptor was determined as 2.1 pM. For the same molecule, in the experiment with human GLP-1 receptor, the “EC50 hGLP-1R (cAMP formation)” value is 1.4 pM.

B3: SEQ ID NO: 22 (peptide)
peptide: H[Aib]HGTFTSDLSKLK([γGlu-AEEA-gAAA-Palmitoyl])EEQRQKEFIEWLKAGGHPS[Aib]KPPPK-NH2
modifications: reading uncertain
As to B3, the “EC50 hGlucagon R (cAMP formation)” value with human glucagon receptor [3] is 5.9 pM. The “EC50 hGIP R (cAMP formation)” value in the experiment with human GIP receptor worked out at 1.1 pM. Further, the “EC50 hGLP-1R (cAMP formation)” value with human GLP-1 receptor turned out to be 1 pM.

B4: SEQ ID NO: 19 (peptide)
peptide: H[Aib]HGTFTSDLSKLK([γGlu-Stearoyl])EEQRQ[Aib]EFIEWLKAGGPPS[Aib]KPPPK-NH2
modifications: N-terminus assumed
SMILES: CCCCCCCCCCCCCCCCCC(=O)N[C@@H](CCC(=O)NCCCC[C@H](NC(=O)[C@H](CC(C)C)NC(=O)[C@H](CCCCN)NC(=O)[C@H](CO)NC(=O)[C@H](CC(C)C)NC(=O)[C@H](CC(=O)O)NC(=O)[C@H](CO)NC(=O)[C@@H](NC(=O)[C@H](Cc1ccccc1)NC(=O)[C@@H](NC(=O)CNC(=O)[C@H](Cc1c[nH]cn1)NC(=O)C(C)(C)NC(=O)[C@@H](N)Cc1c[nH]cn1)[C@@H](C)O)[C@@H](C)O)C(=O)N[C@@H](CCC(=O)O)C(=O)N[C@@H](CCC(=O)O)C(=O)N[C@@H](CCC(N)=O)C(=O)N[C@@H](CCCNC(=N)N)C(=O)N[C@@H](CCC(N)=O)C(=O)NC(C)(C)C(=O)N[C@@H](CCC(=O)O)C(=O)N[C@@H](Cc1ccccc1)C(=O)N[C@H](C(=O)N[C@@H](CCC(=O)O)C(=O)N[C@@H](Cc1c[nH]c2ccccc12)C(=O)N[C@@H](CC(C)C)C(=O)N[C@@H](CCCCN)C(=O)N[C@@H](C)C(=O)NCC(=O)NCC(=O)N1CCC[C@H]1C(=O)N1CCC[C@H]1C(=O)N[C@@H](CO)C(=O)NC(C)(C)C(=O)N[C@@H](CCCCN)C(=O)N1CCC[C@H]1C(=O)N1CCC[C@H]1C(=O)N1CCC[C@H]1C(=O)N[C@@H](CCCCN)C(N)=O)[C@@H](C)CC)C(=O)O
Regarding B4, the “EC50 hGlucagon R (cAMP formation)” value with human glucagon receptor [3] came out at 3.1 pM. For the same molecule, the “EC50 hGIP R (cAMP formation)” value in the experiment with human GIP receptor came to 4 pM. Besides, in the experiment with human GLP-1 receptor, the “EC50 hGLP-1R (cAMP formation)” value was found to be 6.1 pM.

B5: SEQ ID NO: 23 (peptide)
peptide: H[Aib]HGTFTSDLSKLK([γGlu-AEEA-gAAA-Palmitoyl])EEQRQKEFIEWLKA[dA]GHPS[Aib]KPPPK-NH2
modifications: reading uncertain
B5: the “EC50 hGlucagon R (cAMP formation)” value with human glucagon receptor [3] is 6.8 pM. Also, the “EC50 hGIP R (cAMP formation)” value in the experiment with human GIP receptor turned out to be 1.5 pM. In addition, the “EC50 hGLP-1R (cAMP formation)” value with human GLP-1 receptor came to 1.4 pM.

B6: SEQ ID NO: 18 (peptide)
peptide: H[Aib]HGTFTSDLSKLK([γGlu-Palmitoyl])EEQRQ[Aib]EFIEWLKAGGPPS[Aib]KPPPK-NH2
modifications: N-terminus assumed
SMILES: CCCCCCCCCCCCCCCC(=O)N[C@@H](CCC(=O)NCCCC[C@H](NC(=O)[C@H](CC(C)C)NC(=O)[C@H](CCCCN)NC(=O)[C@H](CO)NC(=O)[C@H](CC(C)C)NC(=O)[C@H](CC(=O)O)NC(=O)[C@H](CO)NC(=O)[C@@H](NC(=O)[C@H](Cc1ccccc1)NC(=O)[C@@H](NC(=O)CNC(=O)[C@H](Cc1c[nH]cn1)NC(=O)C(C)(C)NC(=O)[C@@H](N)Cc1c[nH]cn1)[C@@H](C)O)[C@@H](C)O)C(=O)N[C@@H](CCC(=O)O)C(=O)N[C@@H](CCC(=O)O)C(=O)N[C@@H](CCC(N)=O)C(=O)N[C@@H](CCCNC(=N)N)C(=O)N[C@@H](CCC(N)=O)C(=O)NC(C)(C)C(=O)N[C@@H](CCC(=O)O)C(=O)N[C@@H](Cc1ccccc1)C(=O)N[C@H](C(=O)N[C@@H](CCC(=O)O)C(=O)N[C@@H](Cc1c[nH]c2ccccc12)C(=O)N[C@@H](CC(C)C)C(=O)N[C@@H](CCCCN)C(=O)N[C@@H](C)C(=O)NCC(=O)NCC(=O)N1CCC[C@H]1C(=O)N1CCC[C@H]1C(=O)N[C@@H](CO)C(=O)NC(C)(C)C(=O)N[C@@H](CCCCN)C(=O)N1CCC[C@H]1C(=O)N1CCC[C@H]1C(=O)N1CCC[C@H]1C(=O)N[C@@H](CCCCN)C(N)=O)[C@@H](C)CC)C(=O)O
Regarding B6, in the experiment with human glucagon receptor [3], the “EC50 hGlucagon R (cAMP formation)” value came to 2.8 pM. In the experiment with human GIP receptor, the “EC50 hGIP R (cAMP formation)” value was found to be 2 pM. Also, the “EC50 hGLP-1R (cAMP formation)” value with human GLP-1 receptor was determined as 5.3 pM.

B7: SEQ ID NO: 28 (peptide)
peptide: HXQGTFTSDLSKQKDEQRAKEFIEWLKAGGPSSGAPPPS
modifications: Aib at 2; Lys14 side chain acylated with gGlu-Stea; C-terminal amide
In the case of B7, the “EC50 hGlucagon-R” value in the experiment with human glucagon receptor [4] was determined as 1.9 pM.

B8: SEQ ID NO: 20 (peptide)
peptide: H[Aib]HGTFTSDLSKLK([γGlu-Palmitoyl])EEQRQKEFIEWLKAGGPPS[Aib]KPPPK-NH2
modifications: N-terminus assumed
SMILES: CCCCCCCCCCCCCCCC(=O)N[C@@H](CCC(=O)NCCCC[C@H](NC(=O)[C@H](CC(C)C)NC(=O)[C@H](CCCCN)NC(=O)[C@H](CO)NC(=O)[C@H](CC(C)C)NC(=O)[C@H](CC(=O)O)NC(=O)[C@H](CO)NC(=O)[C@@H](NC(=O)[C@H](Cc1ccccc1)NC(=O)[C@@H](NC(=O)CNC(=O)[C@H](Cc1c[nH]cn1)NC(=O)C(C)(C)NC(=O)[C@@H](N)Cc1c[nH]cn1)[C@@H](C)O)[C@@H](C)O)C(=O)N[C@@H](CCC(=O)O)C(=O)N[C@@H](CCC(=O)O)C(=O)N[C@@H](CCC(N)=O)C(=O)N[C@@H](CCCNC(=N)N)C(=O)N[C@@H](CCC(N)=O)C(=O)N[C@@H](CCCCN)C(=O)N[C@@H](CCC(=O)O)C(=O)N[C@@H](Cc1ccccc1)C(=O)N[C@H](C(=O)N[C@@H](CCC(=O)O)C(=O)N[C@@H](Cc1c[nH]c2ccccc12)C(=O)N[C@@H](CC(C)C)C(=O)N[C@@H](CCCCN)C(=O)N[C@@H](C)C(=O)NCC(=O)NCC(=O)N1CCC[C@H]1C(=O)N1CCC[C@H]1C(=O)N[C@@H](CO)C(=O)NC(C)(C)C(=O)N[C@@H](CCCCN)C(=O)N1CCC[C@H]1C(=O)N1CCC[C@H]1C(=O)N1CCC[C@H]1C(=O)N[C@@H](CCCCN)C(N)=O)[C@@H](C)CC)C(=O)O
As to B8, the “EC50 hGlucagon R (cAMP formation)” value with human glucagon receptor [3] is 4.2 pM. Also, the “EC50 hGIP R (cAMP formation)” value in the experiment with human GIP receptor worked out at 1.9 pM. Further, the “EC50 hGLP-1R (cAMP formation)” value with human GLP-1 receptor stood at 4.8 pM.
